# Source: paper PMC4555872
# Columns and labels:
# [1] = molecular target: CZA97.012 gp140 (uncleaved, foldon, His-tagged) (HIV-1 (subtype C, CZA97.012) | not stated); assay: SEC
# [2] = molecular target: BG505 SOSIP.664 gp140 trimer (cleaved) (HIV-1 (BG505)); assay: negative stain electron microscopy
# [3] = molecular target: BG505 WT.SEKS gp140 (uncleaved) (HIV-1 (BG505)); assay: negative stain electron microscopy
substance,measurement,setting,value
"CZA97.012 gp140 (uncleaved, foldon, His-tagged)",stoichiometry N,[1],3
BG505 SOSIP.664 gp140 trimer (cleaved) (complex),stoichiometry N,[2],3
BG505 WT.SEKS gp140 (uncleaved),stoichiometry N,[3],3
